Target: Vibrio cholerae chromosome 2 ParA (ParA2vc) (Vibrio cholerae)
Assay: negative-stain EM; ParA2vc 1 mg/ml with or without 3.5 mM nucleotide and MgCl2, 30 °C 15 min, diluted 1/100 in 100 mM NaCl, 50 mM Tris pH 7.5; no DNA; 2D classification of particles; monomers to dimer

**Q.** How did the stoichiometry N turn out when “Vibrio cholerae chromosome 2 ParA (ParA2vc)” was run?
**A.** 2
